Results taken from PMC10361524.

Experiments:
[1] = target: T1, IL-20R2D Y70NBY (human), Q6UXL0; experiment: MST; IL-20R2D variants labelled with RED-tris-NTA dye on the His tag, held constant at 50 nM; unlabelled IL-24B4 titrated; 50 mM Tris pH 8, 100 mM NaCl, 0.02% pluronic F127; not irradiated
T1 chain: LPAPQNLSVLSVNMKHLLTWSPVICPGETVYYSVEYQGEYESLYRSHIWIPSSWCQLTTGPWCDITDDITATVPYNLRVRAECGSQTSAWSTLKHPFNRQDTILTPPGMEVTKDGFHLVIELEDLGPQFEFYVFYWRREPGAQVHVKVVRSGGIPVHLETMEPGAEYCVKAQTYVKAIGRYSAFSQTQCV

[2] = target: T2, IL-20R2D Y74NBY (human), Q6UXL0; experiment: as above
T2 chain: T1 chain

IL-20R2D (human), Q6UXL0 [3] = experiment: as above
[4] = target: T3, IL-20R2D Y70NBY/Y74NBY (human), Q6UXL0; experiment: as above
T3 chain: T1 chain

[5] = target: IL-20R2D Y70NBY + UV (human), Q6UXL0; experiment: MST; as a1, but the IL-20R2D variant irradiated at 365 nm (100 mW, 5 min) before use
IL-20R2D (human), Q6UXL0 [6] = experiment: as above
IL-20R2D (human), Q6UXL0 [7] = experiment: MST; IL-20R2D variants labelled with RED-tris-NTA dye on the His tag, held constant at 50 nM; unlabelled IL-24B4 titrated; 50 mM Tris pH 8, 100 mM NaCl, 0.02% pluronic F127; not irradiated; remark: listed apart in the source
[8] = target: T4, IL-24B4 displayed on the yeast surface (version with an N-terminal linker of 17 amino acids, fused to a fluorescent protein) (human); experiment: flow cytometry on cells; yeast surface display of IL-24B4 (suspension enriched with 0.5% IL-24S yeast); CF640R-labelled IL-20R2D variants at 500, 100, 20, 4 and 0.1 nM in PBSB with 10 nM bilirubin, overnight at 4°C; apparent Kd (affinity and avidity); not irradiated
[9] = target: T4, IL-24B4 displayed on the yeast surface …; experiment: flow cytometry on cells; as a3, but the labelled IL-20R2D variant UV irradiated (365 nm); apparent Kd

T4 sequence (main, as listed by the source): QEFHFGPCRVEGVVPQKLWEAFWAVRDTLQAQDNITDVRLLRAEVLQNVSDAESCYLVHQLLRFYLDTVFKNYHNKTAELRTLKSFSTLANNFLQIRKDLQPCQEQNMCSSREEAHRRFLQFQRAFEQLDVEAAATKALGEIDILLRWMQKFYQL

B1: IL-24B4 (SUMO-cleaved, C-terminal Strep-tag), Q13007 52-206 (ligand)
chain: FHFGPCRVEGVVPQELWEAFWAVRDTLQAQDNITDVRLLRAEVLQNVSDAESCYLVHQLLRFYLDTVFKNYHNKTAELRTLKSFSTLANNFVLIVSDLQPCQEQNMCSSREEAHRRFLQFQRAFEQLDVEAAATKALGEIDILLTWMQKFYQL
modifications: not checked
Kd [1]: > 94000 nM
Kd [2]: 430 nM
Kd (IL-20R2D (human), Q6UXL0 [3]): 630 nM
Kd [4]: 570 nM
Kd [5]: 3300 nM
Kd (IL-20R2D (human), Q6UXL0 [6]): 3700 nM
Kd (IL-20R2D (human), Q6UXL0 [7]): 500 nM

B2: IL-20R2D Y70NBY, Q6UXL0 30-233 (receptor)
chain: T1 chain
modifications: here or on the partner: ortho-nitrobenzyl-tyrosine (NBY) at 70
Kd [8]: 2000 nM

B3: IL-20R2D Y70NBY + UV, Q6UXL0 30-233 (receptor)
chain: T1 chain
modifications: here or on the partner: UV-decaged, Tyr70 restored to canonical tyrosine; designed disulfide Cys59-Cys117
Kd [9]: 7.6 nM

B4: IL-20R2D, Q6UXL0 30-233 (receptor)
chain: T1 chain
modifications: here or on the partner: designed disulfide Cys59-Cys117 (UniProt numbering)
Kd [9]: 9.6 nM
Kd [8]: 5 nM
